US20200002414A1 (published 2020)

What was measured:
cynomolgus Ror2 = molecular target: T1, cynomolgus Ror2 (cynomolgus, UniProt A0A7N9D5U8 34-403); assay: ELISA
T1 construct: also called cynoROR2

human Ror2 [1] = molecular target: T2, human Ror2 (human, UniProt Q01974 34-403, limits assumed); assay: ELISA
T2 construct: also called hROR2; receptor tyrosine kinase-like orphan receptor 2

mouse Ror2 = molecular target: T3, mouse Ror2 (mouse, UniProt Q9Z138 34-403, limits assumed); assay: ELISA
T3 construct: also called mROR2
T3 sequence (Q9Z138 34-403 limits assumed): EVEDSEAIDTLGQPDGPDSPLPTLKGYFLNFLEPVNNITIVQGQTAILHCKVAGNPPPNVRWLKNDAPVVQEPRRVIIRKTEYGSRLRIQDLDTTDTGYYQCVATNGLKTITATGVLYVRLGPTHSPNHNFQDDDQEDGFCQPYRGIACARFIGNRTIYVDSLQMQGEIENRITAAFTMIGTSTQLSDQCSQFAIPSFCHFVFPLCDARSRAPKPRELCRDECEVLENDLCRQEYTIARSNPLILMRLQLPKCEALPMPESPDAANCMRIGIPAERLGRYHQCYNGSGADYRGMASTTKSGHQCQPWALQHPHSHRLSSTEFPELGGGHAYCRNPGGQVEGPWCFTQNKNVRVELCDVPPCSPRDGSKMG

human Ror2 [2] = molecular target: T2, human Ror2; assay: ELISA, human Ror2; ratio of signal at pH 6.0 to pH 7.4
human Ror2 [3] = molecular target: T2, human Ror2; assay: ELISA, human Ror2, pH 6.0
human Ror2 [4] = molecular target: T2, human Ror2; assay: ELISA, human Ror2, pH 7.4

T2 sequence (Q01974 34-403 limits assumed): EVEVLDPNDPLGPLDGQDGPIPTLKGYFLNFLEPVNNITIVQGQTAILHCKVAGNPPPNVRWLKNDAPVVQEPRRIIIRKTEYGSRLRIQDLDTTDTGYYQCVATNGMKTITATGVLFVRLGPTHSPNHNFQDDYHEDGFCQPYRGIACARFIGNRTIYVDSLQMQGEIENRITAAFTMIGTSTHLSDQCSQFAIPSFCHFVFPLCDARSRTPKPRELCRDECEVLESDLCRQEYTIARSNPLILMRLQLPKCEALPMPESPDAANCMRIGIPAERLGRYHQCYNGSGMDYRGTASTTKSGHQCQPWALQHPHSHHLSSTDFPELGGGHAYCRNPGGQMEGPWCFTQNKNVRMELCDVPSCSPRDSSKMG
T1 sequence (A0A7N9D5U8 entry or part of it): as the sequence (Q01974 34-403 limits assumed) above, with L5P, T212A, M289T, T320A counted along it

EC50 (cynomolgus Ror2) [µg/mL] | EC50 (human Ror2 [1]) [µg/mL] | EC50 (mouse Ror2) [µg/mL] | ratio, pH 6.0/7.4 (human Ror2 [2]) | Affinity ELISA pH 6.0 (human Ror2 [3]) | Affinity ELISA pH 7.4 (human Ror2 [4]) | Binder
0.327 | 0.201 | 7.65 |  |  |  | conditionally active antibody BAP048 (antibody, V domains shown) VH: EVQLVQSGAEVKKPGESLRISCKGSGYTFTEYTMHWVRQAPGQGLEWMGGINTNNGGTGYNQKFKGRVTISADKSISTAYLQWSSLKASDTAMYYCAHGSLYSYGNSYFDYWGQGTLVTVSS VL: AIQLTQSPSSLSASVGDRVTITCSATSSVSYMHWYLQKPGQSPQLLIYGTSNLASGVPDRFSGSGSGTDFTLKISRVEAEDVGVYYCQQRSSYPFTFGQGTKVEIK
 |  |  | 2.28 | 0.489 | 0.215 | LC-F097E (antibody, V domains shown) VH: EVQLQQSGPELVKPGASVKISCKTSGYTFTEYTMHWMKQSHRKSLEWIGGINTNNGGTGYNQKFKGKATLTVDKSSSTAYMELRSLTSEDSAVYFCARGSLYSYGNSYFDYWGQGTLVTVSS VL: QIVLTQSPAIMSASPGEKVTITCSATSSVSYMHWFQQKPGTSPKLWIYGTSNLASGVPARFSGSGSGTSYSLTISRMEAEDAATYYCQQRSSYPFTEGQGTKVEIK
 |  |  | 1.74 | 0.438 | 0.251 | LC-Q089E (antibody, V domains shown) VH: EVQLQQSGPELVKPGASVKISCKTSGYTFTEYTMHWMKQSHRKSLEWIGGINTNNGGTGYNQKFKGKATLTVDKSSSTAYMELRSLTSEDSAVYFCARGSLYSYGNSYFDYWGQGTLVTVSS VL: QIVLTQSPAIMSASPGEKVTITCSATSSVSYMHWFQQKPGTSPKLWIYGTSNLASGVPARFSGSGSGTSYSLTISRMEAEDAATYYCQERSSYPFTFGQGTKVEIK
 |  |  | 1.77 | 0.19 | 0.107 | LC-F097D (antibody, V domains shown) VH: EVQLQQSGPELVKPGASVKISCKTSGYTFTEYTMHWMKQSHRKSLEWIGGINTNNGGTGYNQKFKGKATLTVDKSSSTAYMELRSLTSEDSAVYFCARGSLYSYGNSYFDYWGQGTLVTVSS VL: QIVLTQSPAIMSASPGEKVTITCSATSSVSYMHWFQQKPGTSPKLWIYGTSNLASGVPARFSGSGSGTSYSLTISRMEAEDAATYYCQQRSSYPFTDGQGTKVEIK
 |  |  | 2.19 | 0.56 | 0.256 | LC-R090H (antibody, V domains shown) VH: EVQLQQSGPELVKPGASVKISCKTSGYTFTEYTMHWMKQSHRKSLEWIGGINTNNGGTGYNQKFKGKATLTVDKSSSTAYMELRSLTSEDSAVYFCARGSLYSYGNSYFDYWGQGTLVTVSS VL: QIVLTQSPAIMSASPGEKVTITCSATSSVSYMHWFQQKPGTSPKLWIYGTSNLASGVPARFSGSGSGTSYSLTISRMEAEDAATYYCQQHSSYPFTFGQGTKVEIK

The next lines start with the binder.

Binder | EC50 (cynomolgus Ror2) [µg/mL] | EC50 (human Ror2 [1]) [µg/mL] | EC50 (mouse Ror2) [µg/mL] | ratio, pH 6.0/7.4 (human Ror2 [2]) | Affinity ELISA pH 6.0 (human Ror2 [3]) | Affinity ELISA pH 7.4 (human Ror2 [4])
LC-G049P (antibody, V domains shown) VH: EVQLQQSGPELVKPGASVKISCKTSGYTFTEYTMHWMKQSHRKSLEWIGGINTNNGGTGYNQKFKGKATLTVDKSSSTAYMELRSLTSEDSAVYFCARGSLYSYGNSYFDYWGQGTLVTVSS VL: QIVLTQSPAIMSASPGEKVTITCSATSSVSYMHWFQQKPGTSPKLWIYPTSNLASGVPARFSGSGSGTSYSLTISRMEAEDAATYYCQQRSSYPFTFGQGTKVEIK |  |  |  | 2.46 | 0.66 | 0.268
LC-S030D (antibody, V domains shown) VH: EVQLQQSGPELVKPGASVKISCKTSGYTFTEYTMHWMKQSHRKSLEWIGGINTNNGGTGYNQKFKGKATLTVDKSSSTAYMELRSLTSEDSAVYFCARGSLYSYGNSYFDYWGQGTLVTVSS VL: QIVLTQSPAIMSASPGEKVTITCSATSSVDYMHWFQQKPGTSPKLWIYGTSNLASGVPARFSGSGSGTSYSLTISRMEAEDAATYYCQQRSSYPFTFGQGTKVEIK |  |  |  | 2.91 | 0.733 | 0.252
LC-Y031C (antibody, V domains shown) VH: EVQLQQSGPELVKPGASVKISCKTSGYTFTEYTMHWMKQSHRKSLEWIGGINTNNGGTGYNQKFKGKATLTVDKSSSTAYMELRSLTSEDSAVYFCARGSLYSYGNSYFDYWGQGTLVTVSS VL: QIVLTQSPAIMSASPGEKVTITCSATSSVSCMHWFQQKPGTSPKLWIYGTSNLASGVPARFSGSGSGTSYSLTISRMEAEDAATYYCQQRSSYPFTFGQGTKVEIK |  |  |  | 1.92 | 1.34 | 0.7
LC-S092D (antibody, V domains shown) VH: EVQLQQSGPELVKPGASVKISCKTSGYTFTEYTMHWMKQSHRKSLEWIGGINTNNGGTGYNQKFKGKATLTVDKSSSTAYMELRSLTSEDSAVYFCARGSLYSYGNSYFDYWGQGTLVTVSS VL: QIVLTQSPAIMSASPGEKVTITCSATSSVSYMHWFQQKPGTSPKLWIYGTSNLASGVPARFSGSGSGTSYSLTISRMEAEDAATYYCQQRSDYPFTFGQGTKVEIK |  |  |  | 1 | 1.13 | 1.12
LC-T096D (antibody, V domains shown) VH: EVQLQQSGPELVKPGASVKISCKTSGYTFTEYTMHWMKQSHRKSLEWIGGINTNNGGTGYNQKFKGKATLTVDKSSSTAYMELRSLTSEDSAVYFCARGSLYSYGNSYFDYWGQGTLVTVSS VL: QIVLTQSPAIMSASPGEKVTITCSATSSVSYMHWFQQKPGTSPKLWIYGTSNLASGVPARFSGSGSGTSYSLTISRMEAEDAATYYCQQRSSYPFDFGQGTKVEIK |  |  |  | 1.59 | 0.755 | 0.474
LC-S092V (antibody, V domains shown) VH: EVQLQQSGPELVKPGASVKISCKTSGYTFTEYTMHWMKQSHRKSLEWIGGINTNNGGTGYNQKFKGKATLTVDKSSSTAYMELRSLTSEDSAVYFCARGSLYSYGNSYFDYWGQGTLVTVSS VL: QIVLTQSPAIMSASPGEKVTITCSATSSVSYMHWFQQKPGTSPKLWIYGTSNLASGVPARFSGSGSGTSYSLTISRMEAEDAATYYCQQRSVYPFTFGQGTKVEIK |  |  |  | 1.04 | 1.23 | 1.18
